The data set in a line: label from the status in PepcDB records.

“MSSQTILSVNNLSVSFTTNDGIVDAVKNVSFELQAGETLSIVGESGSGKSVSTNALMTLLPDNAIVHPDSSIMFEGESILDKTERQMQRIRGDRIGMIFQEPMTSLNPYMRVGIQVAEAMMCHRSVNQRKAKERVLELFDLVHLPNPQQAYDKYPHEFSGGQLQRIMIAMALINEPDILIADEPTTALDVTVQAEVLLLIKEIQAKMGMAILFITHDLGVVKHFADRVLVMCKGEVVEEGITEHLFSEPQHEYTKMLINSIPKGSKTPVDEKASELLNAEDIR”: the protein production result is recorded as “not failed”.

For “MSSRLARFALSGYRIAGIAAYPFARPYLSYRAAKGKEDKRRRLERFGYASAERPRGPLVWFHAASVGETLALIPLIREIRKRDIFVLLTTGTVTSAELTRTRLGDDVIHQYVPLDIKIAVNRFLTYWAPDAAITAESEIWPVTMMELERRHIPQIRVNARLSDRSFDRWKARHDIAESLFSKLALVVAQSDLDAERFRDLGSWPVVISGNLKGDTDPPPCDEALLESYRKQVGNRKTWAAISTFDGEEKAAATVHAAIKSRNGQLTIIVPRHPERGDDVEAMLKGMNLSVARRSRNDVITPGTDIFLGDSIGEMGLYLRLTELAFVGRSLTAEGGQNPLEPAMLGCAVLSGAHVQNFREAYQKLIRAGGGRIIRDVEMLAKAVHYLLVNDNERYKMIDAGNRVIQDMRGALSSTVKALEPYINPLTVSAKLQPRSAIGSWLEHHHHHH”, the protein production result is recorded as “failed”.

With “MSSSDGKLRYDGRVAVVTGAGAGLGREYALLFAERGAKVVVNDLGGTHSGDGASQRAADIVVDEIRKAGGEAVADYNSVIDGAKVIETAIKAFGRVDILVNNAGILRDRSLVKTSEQDWNLVNDVHLKGSFKCTQAAFPYMKKQNYGRIIMTSSNSGIYGNFGQVNYTAAKMGLIGLANTVAIEGARNNVLCNVIVPTAASRMTEGILPDILFNELKPKLIAPVVAYLCHESCEDNGSYIESAAGWATKLHMVRGKGAVLRPSLDDPVTIEYVKDVWSNVTDMSKAKHLGAIAEASGTLLEVLEKLKEGGGDAIEDAFEFNSKELITYALGIGASVKNAKDMRFLYENDADFAAIPTFFVLPGLLLQMSTDKLLSKALPNSQVDFSNILHGEQYLEIVDDLPTSGTLLTNGKVFDVMDKGSGAVVVTNSESFDESGRLLVRNQSTTFIVGAGKFGGKKDPIAGVVPLQPAPNRQPDATVQYTTSEDQAALYRLSGDKNPLHIDPQMALLAGFKTPILHGLCTLGFSVRAVLAQFADNNPALFKAVKVRFSGPVIPGQTLRVDLWKQGTRINFRTVVVETGKEVISGAYVDLKSSQAKL”, the protein production result is “failed”.

With “MSSSDIFIGETIGTAVLILLGGGVCAAVTLKASKARNAGWLAITFGWGFAVLTAVYISAPLSGAHLNPAVTLALAIKDNDWSNVPTYWAGQLLGAMIGAALVWVAYYGQFHAHLTDHEIVGGPGAQATKTKAVEAQETGAGPVLGVFSTGPEVRNVVQNLATEIIGTVVLVLAILTQGLNDNGNGLGTIGALITSLVVVSIGLSLGGPTGYAINPARDLGPRIVHALLPLPNKGGSDWSYAWIPVVGPLIGAAIAAGIYNVAFA”, the protein production entry was “failed”.

Regarding “MSSSIEIFPDSDILVAAAGKRLVGAIGAAVAARGQALIVLTGGGNGIALLRYLSAQAQQIEWSKVHLFWGDERYVPEDDDERNLKQARRALLNHVDIPSNQVHPMAASDGDFGGDLDAAALAYEQVLAASAAPGDPAPNFDVHLLGMGPEGHINSLFPHSPAVLESTRMVVAVDDSPKPPPRRITLTLPAIQRSREVWLLVSGPGKADAVAAAIGGADPVSVPAAGAVGRQNTLWLLDRDAAAKLPS”, the protein production entry is “not failed”.

Consider “MSSSLDLAPELSVASTHPASTLAGHQPDLVLSPRLHNRDLAPTRMEGRRWGGYSIFALWTNDVHNIANYSFAMGLFALGLGGWQILLSLAIGAALVYFFMNLSGYMGQKTGVPFPVISRIAFGIHGAQIPALIRAVIAIAWFGIQTYLASVVLRVLLTAVWPQIAAYDHDSILGLSSLGWVCFVSIWLVQLVILAYGMEMVRRYEAFAGPVILLTVAALAVFMYFKADARIAWSVATPLTGYEMWRNIFAGGALWLAIYGTLVLNFCDFARSSPCRKTIRVGNFWGLPVNILVFAVITVVLCGAQFQINGQIIDSPTQIVAAIPSTPFLVLGCLAFLIVTVAVNIMANFVAPAFVLSNLAPRHLNFRRAGLISATLAVLILPWNLYNSPLVIVYFLSGLGALLGPLYGVIMSDYWLLRKGCINVPELYTEHPAGAYHYSKGINLRAVAAFVPAALLAIVLALVPNFQGIAPFSWLIGAGIAAALYLLIAPRNRHYHDVSGECIAVDHSGH”, for which the protein production result is on record as “failed”.

On to “MSSSPEKKRRKKLSPESNSLPNDLIVTILARLSQSYYPKLSLVSKTFRAILASPELYQTRILLSRTETFLYVCLSFPGEPNPGWFTLYRKPNQTLTTKKKKNSVHLLAPILNSPPVEFPSLIAVGSYLYAFRAAIEEGTSDSLNCVEVYNTDTQTWIPVPPNKRIFKLQHMKGMLYMKVSKLLSFVAQDAEELAPLFPKLRSLLSTEVVAFKPKVSEGYEVLGFSVNTDLGRGSFCMIEEITYHYDPSVKFRWRRRQGGVWRSLVGLEGLPKFARYSSVKLADCGGKLVVLWHKYVPASGYEEKMVWCAEISLEKRSKKEIWGKIEWFDAVLRVPKYYQFVGAKSATV”, for which the protein production result is given as “failed”.

Regarding “MSSSSPGEPLEPTDQDLDVLLKNLGNLVTPMALRVAATLRLVDHLLAGADTLAGLADRTDTHPQALSRLVRHLTVVGVLEGGEKQGRPLRPTRLGMLLADGHPAQQRAWLDLNGAVSHADLAFTGLLDVVRTGRPAYAGRYGRPFWEDLSADVALADSFDALMSCDEDLAYEAPADAYDWSAVRHVLDVGGGNGGMLAAIALRAPHLRGTLVELAGPAERARRRFADAGLADRVTVAEGDFFKPLPVTADVVLLSFVLLNWSDEDALTILRGCVRALEPGGRLLVLDRADVEGDGADRFFSTLLDLRMLTFMGGRVRTRDEVVDLAGSAGLALASERTSGSTTLPFDFSILEFTAVSEEAAPAAQASEALPAQE”, the protein production entry is reported as “not failed”.

As for “MSSSSPSGSGSDLTERRGIPAAKFIQDVETYLSQSGLDPNSALAFHQERLQQYKVVEMKLLAQQRDLQAKIPDIEKCLEVVATLEAKKGTGEALLADFEVSEGIYSRACIEDTDSVCLWLGANVMLEYSCEEASALLKNNLENAKASLEVLVADLQFLRDQVTVTQVTIARVYNWDVHQRRVKQVTPTAIAVADS”, the protein production entry was “failed”.

As for “MSSTASSVFADETLLFEPATPIANAVPLIFAFPNEYSVGITSLGFQIVWATLAARSDLQVSRLFTDIAEPLPRQPELLGFSLSWELDYVNILAMLEQLGIPLRSRDRGDEHPLVFGGGPTLTANPEPFADFFDVILVGDGEVLLDAFIDAYQPLRDRPRAEKLRQLAQVPGLYIPALYEPIYEAADGAIATIQPIDNDIPVQIEKQTYRGNVLSASTVVTPRAAWESIYMVEVVRSCPEMCRFCLASYLTLPFRTASLEESLQPAIARGLTATQRIGLLGASVTQHPEFPALLDRLGQPEFTDVRLSVASVRTNTVTEKFASILAQRGTKSLTIAVESGSERLRQVINKKLAQAEITEAAVNAKAGGLQGLKLYGMAGVPTETEDDLLATAEMLKGLKKAAPGLRLSYGCSTFVPKAQTPFQWQGVSPKAEKRLQFLQKQLRPQGIEFRPESYSWSVIQALISRGDRRLSSLLERVRHYGESLGSYRRAFKELKGTLPPLDFYVFQDWEPEAPLPWQHLRGPLPVETLRKHRQQAFAIAAAGVGSK”, the protein production entry was “failed”.

Regarding “MSSTPATPAISPTQQSALALWRMRLITLLPLGAIAWISMVLADHPAIAHYGLSALTLAMGAGMVAANTMPKHWLAPLAPGMQFARHHLLRLGVALYGLRLTFGAIAALGVGGVVVPLTMLVATLLFGTWVGSSFFGLSRREAILVSAGSAVCGAAAAIAVSSVVRTDDRQTAVAVATVVLFGTVGMLLYPWLYELATQHWHLAISERSFGIFTGATLHEVAQVIASGKMVSDGAADAAVVAKMVRVLALGPLLLVMALWPRTSWSQASGGSRNLHGLLRSVPWFALGFVAVMALNSAQMVPADWKPALIGFDNWMLACAMLAIGLHTRIGDLLRAGRKPLALAGVLFLFLMVVGAALCALLV”, the protein production entry was “failed”.

For “MSSTSFTDLLGSSGVDCYEDDEDLRVSGSSFGGYYPERTGSGLPKFKTAQPPPLPISQSSHNFTFSDYLDSPLLLSSSHSLISPTTGTFPLQGFNGTTNNHSDFPWQLQSQPSNASSALQETYGVQDHEKKQEMIPNEIATQNNNQSFGTERQIKIPAYMVSRNSNDGYGWRKYGQKQVKKSENPRSYFKCTYPDCVSKKIVETASDGQITEIIYKGGHNHPKPEFTKRPSQSSLPSSVNGRRLFNPASVVSEPHDQSENSSISFDYSDLEQKSFKSEYGEIDEEEEQPEMKRMKREGEDEGMSIEVSKGVKEPRVVVQTISDIDVLIDGFRWRKYGQKVVKGNTNPRSYYKCTFQGCGVKKQVERSAADERAVLTTYEGRHNHDIPTALRRS”, the protein production result was “failed”.

As to “MSSWMMVPVVFLTAYSDPETIGRARRAGAYGYLLKPYDDRKLRAAVETALRRYRADVRDILKVHETAVRGPVPGVLIVEDEAIIAADLKQKLENAGFRVLGVHDTGEGAIAAASELEPDVVIMDVYIRGEMDGIKAAERIQERYGIPVIYLTAYSDDATLSRILESEPYGYLLKPLNTEQLQAEIEVVLENLRTTEDYSRRVREVLVTKAEEMKIEKTGIFFVSSVITALAVYGFITGSMTWLMYTLFIPTVYSLMHLAFSFGEPEKPSSSAMPMVSIIVPANNEENTIEGCVETLSALDYHVNGERNYEIIVVNDGSTDRTGEILEGLLRKHRHLKAVTRKAPFAFNGRVMPSMMVSPLPRGIL”, the protein production entry is “failed”.

In the case of “MSSWRKPGPIPRDLSVEIDSSTERRIIAKLLPGVMGPGFRQDDAGEAAMSDPSAHWNNVYATKGETEVSWFQESPAISLDMIRSANVDRGAGIIDIGGGASRLVDALLQDGYRNLAVLDLSANALDAAKRRIGPAAASVDWIVADATTWRPARSYEVWHDRAAFHFLTDPRDRAAYVERLRSAVAAGGHVIIATFALDGPEKCSGLPVQRHDSKSLSTELGPDFELIETRSETHHTPWKSTQAFQFSRFRRRGS”, the protein production result is reported as “failed”.

Regarding “MSSYSNELLMLIFRSMLCKQVLIFFAYSGLYYLVTYFMDKKIQHQKQFLLKLGLVKLKKRNKTRWEKIRWRMQLCLIVSILVLVVSTFVLNPDDQYILLVIYVMKLATFTSFAIAFVDSLGPIKEIQQLIVGAQSSDTLDSDKKVLTVTIFKKIRWMLILYQVLKVPALIIILTLSVDY”, the protein production result is on record as “failed”.

Consider “MSTAAETTGGDIEPWEEVTPDAARRLLVAAVEAFAERGYHATTTRDIAGRAGMSPAALYIHYKTKEELLHRISRIGHTRAVAILRSAAQGEGSAAERLADAVSSFVRWHAGRRTTARVVQYELDALGPEAREEILTLRRQCDAAVRGIIDDGVAAGEFDVPDVKGTTLAVLSLCIDVARWFNVNGPRTPDEVGALYADLVLRMVGAEPSGATAQR”, for which the protein production result was “not failed”.

As for “MSTDIDCIVIGAGVVGLAIARALAAGGHEVLVAEAAEGIGTGTSSRNSEVIHAGIYYPADSLKARLCVRGKHLLYEYCAARGVPHQRLGKLIVATSDAEASQLDSIARRAGANGVDDLQHIDGAAARRLEPALHCTAALVSPSTGIVDSHALMLAYQGDAESDGAQLVFHTPLIAGRVRPEGGFELDFGGAEPMTLSCRVLINAAGLHAPGLARRIEGIPRDSIPPEYLCKGSYFTLAGRAPFSRLIYPVPQHAGLGVHLTLDLGGQAKFGPDTEWIATEDYTLDPRRADVFYAAVRSYWPALPDGALAPGYTGIRPKISGPHEPAADFAIAGPASHGVAGLVNLYGIESPGLTASLAIAEETLARLAALEHHHHHH”, the protein production entry was “not failed”.

As for “MSTDNLLQPKLIEATLGDYPVIQNMARFYVYDMSRYCGFISEEWTCPPDGLYESYDFKIYFTDPERKAFLIQIDNELAGFALLNKFGIQAVDWSMGEFFILAKFQGKGIGQSVAHQLWRTHPGEWEISVIPENIPALSFWRQAVMTYTL”, the protein production result is reported as “not failed”.

As to “MSTDSVRSSTTGGSASGARTFCSLADLSTKKCVPCNAKDLRAMTEQSAQDLLQKVAGWDLANDNDTLKLHRSWRVKSFTKGLDFFQRVADIAESEGHHPDLHLVGWNNVKIEIWTHAIGGLTENDFILAAKINELQVEDLLRKKKVAK”, the protein production entry was “failed”.
